T1: HSPB5ACD (α-crystallin domain of HSPB5) (human)
T1 chain: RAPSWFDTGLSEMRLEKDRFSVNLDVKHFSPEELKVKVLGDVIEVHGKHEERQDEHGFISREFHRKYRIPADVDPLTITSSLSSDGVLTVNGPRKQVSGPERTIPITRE

B1: HSPB7 C-terminal peptide (residues 168-175, TFRTEIKI) (peptide)
peptide: TFRTEIKI
B2: HSPB1 C-terminal peptide (cognate peptide of HSPB1ACD) (peptide)
chain: ITIPVTFE
B3: HSPB5 C-terminal peptide (cognate peptide of HSPB5ACD) (peptide)
chain: ERTIPITRE
modifications: Limits are not printed. 156-164, containing the IPI motif, is taken by convention from the peptide in the HSPB5 ACD-peptide structure PDB 4M5S; check residues come from the IPI motif, not numbered in the text. Terminal chemistry not stated.

What was measured:
[1] = molecular target: T1, HSPB5ACD (α-crystallin domain of HSPB5)
[2] = molecular target: HSPB7ACD (α-crystallin domain, residues 78-162 of isoform 2) (human, UniProt Q9UBY9-2 78-162)
[3] = molecular target: HSPB1ACD (α-crystallin domain of HSPB1) (human)
Chain of HSPB1ACD (α-crystallin domain of HSPB1) (human) (chain, as listed by the source): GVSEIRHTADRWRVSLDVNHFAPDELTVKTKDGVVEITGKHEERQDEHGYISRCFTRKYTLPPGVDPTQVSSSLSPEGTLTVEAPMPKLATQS

Kd [1] [µM]	Kd [2] [µM]	Kd [3] [µM]	Binder
186	378	559	B1
	109		B2
23	71		B3

From article PMC12046049 (2025)
